Test system: full length human N-WASP (Myc-N-WASP-TAP)

## N_GST_tev_Rac1 GTP (bacterial GST tagged Rac1 protein)
  activation of FL N-WASP (barbed ends, actin polymerization assay): Rac1 can activate FL N-WASP
  activation of FL N-WASP against Cdc42: Rac1 was a more potent N-WASP activator than Cdc42 in the absence of PIP2 vesicles
  dose dependence of barbed end concentration: there is a bell shaped dose dependence for Nck1, Nck2 and Rac1

Reference: US20060024786
